Paper PMC8998314, “MYB2 Is Important for Tapetal PCD and Pollen Development by Directly Activating Protease Expression in Arabidopsis”

T1: HIS-MYB2 (Arabidopsis thaliana, UniProt Q39028 1-273)
T1 sequence: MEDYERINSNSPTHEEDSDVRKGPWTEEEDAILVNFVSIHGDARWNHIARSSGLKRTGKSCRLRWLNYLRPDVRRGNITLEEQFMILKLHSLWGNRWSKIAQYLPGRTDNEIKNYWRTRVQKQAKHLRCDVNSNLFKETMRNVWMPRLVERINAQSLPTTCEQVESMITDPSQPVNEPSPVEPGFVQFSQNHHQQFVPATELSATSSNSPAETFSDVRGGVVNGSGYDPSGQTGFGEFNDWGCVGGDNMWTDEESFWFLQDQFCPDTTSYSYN

B1: CEP1 short probe with TAACTG (dsDNA)
DNA 1: TTAGACAACAGTTATTGTAATG
DNA 2: CATTACAATAACTGTTGTCTAA
B2: CEP1 short probe(s) with AAACCA (dsDNA)
DNA 1: GCTCCTGAAAACCATAATCAGA
DNA 2: TCTGATTATGGTTTTCAGGAGC

Target: T1, HIS-MYB2
Experiment: EMSA; EMSA binding buffer (Beyotime Chemiluminescent EMSA kit, composition and pH not stated), 30 min at 25 °C
Details: protein: recombinant; tags: His (pET-30a); label: biotin

Binder | binding result
B1 | binds
B2 | binds
